The values below come from paper PMC12494035.

The assay deals with coatomer (COPI heptamer) (Mus musculus) (UniProt Q8CIE6). Briefly: cryo-EM structure; cryo-electron tomography and subtomogram averaging of COPI-coated vesicles and buds from an in vitro budding reaction: liposomes with 3 mol % PI4P (0.23 mg/ml), GTPγS 0.5 mM, COPI 1.36 μM, Arf1 20 μM, ARNO 4 μM, GOLPH3 9 μM; 50 mM Hepes pH 7.2, 125 mM KOAc, 30 min at 37°C; 7.5 Å map, model by rigid body fitting of domains from AlphaFold 3 predictions.

Sequence of Arf1 (P84077 whole entry, the tested form may be a part): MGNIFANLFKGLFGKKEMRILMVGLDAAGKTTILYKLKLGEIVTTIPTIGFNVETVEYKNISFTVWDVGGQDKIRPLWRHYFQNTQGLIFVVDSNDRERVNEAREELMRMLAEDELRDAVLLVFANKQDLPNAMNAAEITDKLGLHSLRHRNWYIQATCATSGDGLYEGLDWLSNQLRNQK

Take “Arf1 (from UniProt P84077 1-181) (natural protein)”: the stoichiometry N (per COPI heptamer) is 2.
